Source: patent US6566083B1, “Method of detecting biologically active substances” (Novo Nordisk A/S, priority 1995, dated 2003)

Assays:
[1] = target: T1, catalytic subunit of the cAMP dependent protein kinase (Bos taurus, UniProt P00517); assay: In vitro GFP phosphorylation assay; type: biochemical; settings: 0.5 μg GFP, 10 casein units kinase, 0.2 mM ATP, 5 minutes at 37° C., excitation 395 nm (FIG. 3)
T1 construct: purchased Promega
Experimental: For in vitro phosphorylation of GFP, 0.5 μg wild-type GFP (purified as described above) in 40 mM Tris, pH 7.4, 20 mM MgOAc and 0.2 mM ATP (all from Sigma, St. Louis, Mo., USA) was incubated for 1-60 minutes at 37° C. with 0-20 casein units of the catalytic subunit of the cAMP dependent protein kinase (Promega, Madison, Wis. USA) and 0-200 μM cAMP dependent protein kinase inhibitor. Emission (excitation wavelength 395 nm or 470 nm) and excitation (emission wavelength 508 nm) spectra were acquired for all samples using the LS50B Luminescence Spectrometer and the FL data Manager software package (Perkin Elmer). The spectra were subsequently compared by using the Graph Builder software package (Perkin Elmer).
The control (w/o PKA) was incubated 5 minutes at 37° C. without the catalytic subunit of the cAMP dependent protein kinase. The excitation wavelength was 395 nm. RFI in the figure means relative fluorescence intensity.

[2] = target: wild-type green fluorescent protein (GFP) derived from the jellyfish Aequorea victoria (Aequorea victoria) [GFP: P42212]; assay: cell-based or functional assay

Substance	increase of fluorescence intensity when incubated with the catalytic subunit of the cAMP dependent protein kinase [1]	fluorescence intensity of wild-type GFP (emission spectra, excitation 395 nm) after in vitro phosphorylation [2] [fold]
wild-type GFP: wild-type green fluorescent protein derived from the jellyfish Aequorea victoria, SEQ ID NO: 32, purified from E. coli	approximately two-fold	
catalytic subunit of the cAMP dependent protein kinase (Promega) (enzyme)		2
